Experimental data as given in patent US20170233490A1 (Hoffmann-La Roche, published 2017).

T1: TtSlyDcas
T1 construct: scaffold without hairpin insert, negative control
T1 chain: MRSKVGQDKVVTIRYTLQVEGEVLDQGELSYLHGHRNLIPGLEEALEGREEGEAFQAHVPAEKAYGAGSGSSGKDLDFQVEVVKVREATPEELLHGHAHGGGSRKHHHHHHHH

T2: TgSlyDΔIF
T2 construct: scaffold without hairpin insert, negative control
T2 chain: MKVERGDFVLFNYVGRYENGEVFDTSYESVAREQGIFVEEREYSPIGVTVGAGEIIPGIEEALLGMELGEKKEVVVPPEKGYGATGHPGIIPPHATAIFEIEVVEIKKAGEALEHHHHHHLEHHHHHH

T3: TgSlyDcys-Her3
T3 chain: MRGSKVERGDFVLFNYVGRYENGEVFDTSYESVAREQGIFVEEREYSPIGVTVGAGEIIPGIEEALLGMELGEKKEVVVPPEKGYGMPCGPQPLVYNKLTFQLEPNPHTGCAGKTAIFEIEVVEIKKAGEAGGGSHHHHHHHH

T4: TtSlyDcas-Her3
T4 chain: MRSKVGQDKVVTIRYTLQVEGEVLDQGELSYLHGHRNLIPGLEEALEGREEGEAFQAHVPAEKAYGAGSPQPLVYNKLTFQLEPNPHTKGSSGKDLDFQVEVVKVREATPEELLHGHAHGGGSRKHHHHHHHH

T5: TgSlyDser-Her3
T5 chain: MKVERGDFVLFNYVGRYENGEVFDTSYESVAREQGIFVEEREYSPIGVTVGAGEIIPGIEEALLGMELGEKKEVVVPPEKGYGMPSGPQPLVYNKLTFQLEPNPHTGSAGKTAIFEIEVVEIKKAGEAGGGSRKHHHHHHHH

T6: human HER4 Extracellular Domain (ECD) (human, UniProt Q15303 26-651)
T6 construct: also called Her4 ECD; HER4-ECD
T6 sequence: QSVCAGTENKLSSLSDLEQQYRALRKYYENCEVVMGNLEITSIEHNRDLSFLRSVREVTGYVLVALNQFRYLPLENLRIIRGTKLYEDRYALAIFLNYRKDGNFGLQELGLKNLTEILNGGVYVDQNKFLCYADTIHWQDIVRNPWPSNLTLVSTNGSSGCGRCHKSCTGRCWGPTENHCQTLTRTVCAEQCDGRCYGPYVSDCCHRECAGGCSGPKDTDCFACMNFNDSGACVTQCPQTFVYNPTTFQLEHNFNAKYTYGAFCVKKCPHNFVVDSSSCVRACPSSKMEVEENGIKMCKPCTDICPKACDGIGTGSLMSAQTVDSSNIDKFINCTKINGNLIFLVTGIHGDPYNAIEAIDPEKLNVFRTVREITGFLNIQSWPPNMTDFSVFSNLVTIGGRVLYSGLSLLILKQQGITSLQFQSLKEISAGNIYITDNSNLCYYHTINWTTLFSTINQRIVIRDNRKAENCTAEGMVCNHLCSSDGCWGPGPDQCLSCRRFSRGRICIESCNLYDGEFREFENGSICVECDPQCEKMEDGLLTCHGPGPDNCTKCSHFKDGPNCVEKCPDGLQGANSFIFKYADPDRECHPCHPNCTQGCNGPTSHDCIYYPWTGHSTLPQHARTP

T7: TtSlyDcys-Her3
T7 chain: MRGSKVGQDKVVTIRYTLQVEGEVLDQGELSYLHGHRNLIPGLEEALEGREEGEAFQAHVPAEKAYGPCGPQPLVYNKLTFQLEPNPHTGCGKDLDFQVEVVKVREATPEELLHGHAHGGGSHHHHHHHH


Key:
HER3 ECD-HRG complex [1] = biological target: T8, HER3 ECD-HRG complex (human, UniProt P21860 20-643); test: SPR Biacore 3000, sequential injection: HER2-ECD first, then HER3-ECD/HRG1β, 270 nM each
T8 construct: HER3 ECD preincubated with a 3- to 6-fold molar excess of Heregulin ('open' conformation); biotinylated Her3-ECD in the ribosome display; also called HER3-ECD/HRG1β
Procedure: (§1) A CM5 series sensor was mounted into the system and was normalized in HBS-ET buffer (10 mM HEPES pH 7.4, 150 mM NaCl, 3 mM EDTA, 0.005% w/v Tween 20) according to the manufacturer's instructions. The sample buffer was the system buffer supplemented with 1 mg/ml CMD (Carboxymethyldextran, Sigma #86524). The system operated at 25° C. 10000 RU monoclonal murine anti-human Fc antibody (MAK<h-Fc> M-R10Z8 E9, Roche Diagnostics GmbH, Penzberg, Germany) were immobilized using EDC/NHS chemistry on all four flow cells. The sensor was deactivated using 1M ethanolamine.
(§2) The association and dissociation rates were monitored for 10 minutes and 8 minutes, respectively.

HER3 ECD-HRG complex [2] = biological target: T8, HER3 ECD-HRG complex; test: SPR Biacore 3000, antibody captured via anti-human Fc, 25 C
Procedure: as §1

HER3 ECD-HRG complex [3] = biological target: T8, HER3 ECD-HRG complex; test: SPR Biacore 3000, sequential injection: HER3-ECD/HRG1β first, then HER2-ECD, 270 nM each
Procedure: as §1, §2

[4] = biological target: T9, human HER1 (full length, on cells) (human, UniProt P00533 25-1210); test: IHC (Ventana Benchmark XT) on formalin-fixed, paraffin-embedded HEK293 cells transiently transfected with full length HER1
T9 construct: HEK293 cells transfected with full length HER1, fixed and embedded (IHC); also called EGFR
Procedure: (§3) All selected clones were tested for reactivity and specificity in IHC. […] After an additional fixation in formalin overnight the Agarose blocks were embedded in paraffin. Untransfected HEK293 cells were used as negative controls and treated accordingly to the transfected cells. After paraffin embedding 3 μm thin sections were prepared using a microtome. The sections were mounted on glass microscopy slides and dried for 2 h. All further steps of the immunohistochemical staining procedure were carried out using a Ventana Benchmark XT. The slides were dewaxed and antigen retrieval was performed by applying heat for 1 hour. For antigen retrieval the Ventana buffer CC1 was used. The antibodies were used at a concentration of 1 μg/ml. For the detection of bound antibody the Ventana UltraView detection kit was used.

[5] = biological target: T10, human HER2 (full length, on cells) (human, UniProt P04626 23-1255); test: IHC (Ventana Benchmark XT) on formalin-fixed, paraffin-embedded HEK293 cells transiently transfected with full length HER2
T10 construct: HEK293 cells transfected with full length HER2 (IHC); MCF-7 cells (co-immunoprecipitation)
Procedure: as §3

TtSlyDcas [6] = biological target: T1, TtSlyDcas; test: ELISA, coated antigen 0.5 µg/ml, hybridoma supernatant
Procedure: (§4) For the ELISA the screening an antigen down format was used. […] Hybridoma Supernatant was added to the plates and incubated for 1 h at room temperature. Bound antibody was detected with a HRP-labeled F(ab′)₂ goat anti-mouse Fcγ (Dianova) and ABTS (Roche) was used as a HRP-substrate.

TgSlyDΔIF [7] = biological target: T2, TgSlyDΔIF; test: as above
Procedure: as §4

[8] = biological target: T11, human HER2 Extracellular Domain (ECD) (human, UniProt P04626 23-652); test: ELISA, coated antigen, hybridoma supernatant
T11 construct: human recombinant, 69.6 kDa; also called Her2 ECD; HER2_ECD
Procedure: as §4

[9] = biological target: T12, human HER1 Extracellular Domain (ECD) (human, UniProt P00533 25-645); test: ELISA, coated antigen, hybridoma supernatant
T12 construct: also called Her1 ECD; HER1-ECD
Procedure: as §4

TgSlyDcys-Her3 = biological target: T3, TgSlyDcys-Her3; test: ELISA, coated antigen
Procedure: as §4
(§5) As negative controls the scaffold proteins TtSlyDcas and TgSlyDΔIF were used.

[10] = biological target: T11, human HER2 Extracellular Domain (ECD); test: ELISA, coated antigen
Procedure: as §4, §5

TtSlyDcas-Her3 = biological target: T4, TtSlyDcas-Her3; test: ELISA, coated antigen
Procedure: as §4, §5

TgSlyDser-Her3 = biological target: T5, TgSlyDser-Her3; test: ELISA, coated antigen
Procedure: as §4, §5

[11] = biological target: T12, human HER1 Extracellular Domain (ECD); test: ELISA, coated antigen
Procedure: as §4, §5

[12] = biological target: T13, human HER3 Extracellular Domain (ECD) (human, UniProt P21860 20-643); test: ELISA, coated antigen
T13 construct: human recombinant, 68 kDa; 'closed' conformation without ligand; also called Her3 ECD; Her-3 ECD
Procedure: as §4, §5

TtSlyDcas [13] = biological target: T1, TtSlyDcas; test: ELISA, coated antigen
Procedure: as §4, §5

[14] = biological target: T6, human HER4 Extracellular Domain (ECD); test: ELISA, coated antigen
Procedure: as §4, §5

TtSlyDcys-Her3 = biological target: T7, TtSlyDcys-Her3; test: ELISA, coated antigen
Procedure: as §4, §5

TgSlyDΔIF [15] = biological target: T2, TgSlyDΔIF; test: ELISA, coated antigen
Procedure: as §4, §5

Kd (HER3 ECD-HRG complex [2]) [nM]	MR (Molar Ratio) (HER3 ECD-HRG complex [2])	koff (HER3 ECD-HRG complex [2]) [s⁻¹]	kon (HER3 ECD-HRG complex [2]) [M⁻¹ s⁻¹]	t1/2-diss (HER3 ECD-HRG complex [2]) [min]	binding result [4]	binding result [5]	binding result (TtSlyDcas [6])	binding result (TgSlyDΔIF [7])	binding result [8]	binding result [9]	ELISA signal (TgSlyDcys-Her3)	ELISA signal [10]	ELISA signal (TtSlyDcas-Her3)	ELISA signal (TgSlyDser-Her3)	ELISA signal [11]	ELISA signal [12]	ELISA signal (TtSlyDcas [13])	ELISA signal [14]	ELISA signal (TtSlyDcys-Her3)	Binder	further results
3.9	0.5	0.00033	84000	35	–	–	–	–	–	–	–	–	–	–	–	–	–	–	–	bispecific HER3/HER2 antibody DIBxPERT (bispecific antibody, human IgG1, kappa, also called DIBxPERT CrossMab) heavy 1: not shown light 1: DIQMTQSPSSLSASVGDRVTITCKASQDVSIGVAWYQQKPGKAPKLLIYSASYRYTGVPSRFSGSGSGTDFTLTISSLQPEDFATYYCQQYYIYPYTFGQGTKVEIKSSASTKGPSVFPLAPSSKSTSGGTAALGCLVKDYFPEPVTVSWNSGALTSGVHTFPAVLQSSGLYSLSSVVTVPSSSLGTQTYICNVNHKPSNTKVDKKVEPKSC heavy 2: not shown light 2: QIVLTQSPAIMSASPGERVTITCSASSSVSYMHWFQQKPGTSPKLLIYSTSNLASGVPARFSGSGSGTSYSLTISRMEAEDAATYYCQQRSSYPFTFGSGTKLEIKRTVAAPSVFIFPPSDEQLKSGTASVVCLLNNFYPREAKVQWKVDNALQSGNSQESVTEQDSKDSTYSLSSTLTLSKADYEKHKVYACEVTHQGLSSPVTKSFNRGEC	MR (molar ratio), second injection (HER3 ECD-HRG complex [1]): 0.7; MR (molar ratio), first injection (HER3 ECD-HRG complex [3]): 0.8
–	–	–	–	–	no binding (tested: 1 µg/ml)	no binding (tested: 1 µg/ml)	no binding	no binding	no binding	no binding	1.78	0.025	1.76	1.98	0.024	3.15	0.04	3.19	1.52	M-15-02 (antibody, V domains shown, murine hybridoma clone) VH: QVQLQQSGAELAKPGASVKMSCKTSGYTLTDYWIHWVKQRPGQGLEWIGYINPYTGYTESNQKFKDKATLTADKSSNTAYIQLSSLTSEDSAVYYCARPYYYGDYWGQGTTLTVSS VL: QIVLTQSPAIMSASPGERVTITCSASSSVSYMHWFQQKPGTSPKLLIYSTSNLASGVPARFSGSGSGTSYSLTISRMEAEDAATYYCQQRSSYPFTFGSGTKLEIK	ELISA signal (TgSlyDΔIF [15]): 0.04
2.1	0.6	0.00023	110000	51	–	–	–	–	–	–	–	–	–	–	–	–	–	–	–	DIB-MoAb (monovalent antibody based on M-05-74) (antibody, V domains shown, also called DIB-74 in the monovalent MoAb format; monovalent M-05-74) VH: QVQLQQSGAELAKPGASVKMSCKTSGYTLTDYWIHWVKQRPGQGLEWIGYINPYTGYTESNQKFKDKATLTADKSSNTAYIQLSSLTSEDSAVYYCARPYYYGDYWGQGTTLTVSS VL: QIVLTQSPAIMSASPGERVTITCSASSSVSYMHWFQQKPGTSPKLLIYSTSNLASGVPARFSGSGSGTSYSLTISRMEAEDAATYYCQQRSSYPFTFGSGTKLEIK	–
–	–	–	–	–	no binding (tested: 1 µg/ml)	no binding (tested: 1 µg/ml)	no binding	no binding	no binding	no binding	1.5	0.064	1.85	1.83	0.067	3.17	0.04	3.19	1.46	M-15-04 (antibody, V domains shown, murine hybridoma clone) VH: QVQLQQSGAELAKPGASVKMSCKTSGYTLTDYWIHWVKQRPGQGLEWIGYINPYTGYTESNQKFKDKATLTADKSSNTAYIQLSSLTSEDSAVYYCARPYYYGDYWGQGTTLTVSS VL: QIVLTQSPAIMSASPGERVTITCSASSSVSYMHWFQQKPGTSPKLLIYSTSNLASGVPARFSGSGSGTSYSLTISRMEAEDAATYYCQQRSSYPFTFGSGTKLEIK	ELISA signal (TgSlyDΔIF [15]): 0.033
